Experimental data published in paper PMC2719906 (Nature, 2008).

B1: EspFU R18 peptide (peptide)
peptide: LPDVAQRLMQHLAEHGIQ
B2: N-WASPC (N-WASP residues 193-501) (domain or fragment)
chain: KRLTKADIGTPSNFQHIGHVGWDPNTGFDLNNLDPELKNLFDMCGISEAQLKDRETSKVIYDFIEKTGGVEAVKNELRRQAPPPPPPSRGGPPPPPPPPHSSGPPPPPARGRGAPPPPPSRAPTAAPPPPPPSRPGVVVPPPPPNRMYPPPPPALPSSAPSGPPPPPPLSMAGSTAPPPPPPPPPPPGPPPPPGLPSDGDHQVPASSGNKAALLDQIREGAQLKKVEQNSRPVSCSGRDALLDQIRQGIQLKSVSDGQESTPPTPAPTSGIVGALMEVMQKRSKAIHSSDEDEDDDDEEDFQDDDEWED
B3: EspFU R33 (N-terminal 33-residue fragment of the fifth repeat) (domain or fragment)
chain: LPDVAQRLMQHLAEHGIQPARNMAEHIPPAPNW

Key:
[1] = biological target: B2; assay: ITC
[2] = biological target: EspFU R47 (full 47-residue fifth repeat of EspFU) (enterohaemorrhagic E. coli (EHEC, …, UniProt P0DJ88 268-314)); assay: ITC
[3] = biological target: T1, WASP GBD (GTPase binding domain, residues 242-310) (UniProt P42768 242-310); assay: NMR titration
T1 sequence (looked up): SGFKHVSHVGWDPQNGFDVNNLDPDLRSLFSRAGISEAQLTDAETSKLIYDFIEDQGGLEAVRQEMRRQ

Binder | Kd [1] | Kd [2] | stoichiometry N [3]
B1 | 4 µM | – | –
B2 | – | 0.035 µM | –
B3 | 0.035 µM | – | 1 EspFU:GBD
